The values below come from paper PMC10539301, “Structure of the human ATAD2 AAA+ histone chaperone reveals mechanism of regulation and inter-subunit communication” (Communications Biology, 2023).

Positions count from the first letter of the chain named. In names and notes the source's numbering stands.

Data set [1] deals with the molecule itself. Kind of data set: SEC + native gel or EMSA + other: negative stain electron microscopy; purified ATAD2 (aa 403-1390) variants; wild type in the absence and presence of ATP; Supplementary Fig. 1. In general terms: In EMSA bound probe runs differently from free probe, usually more slowly.
Data set [2] deals with T1, Histone H3/H4 complex (X. laevis, wild type, refolded) (X. laevis, UniProt P84233 1-136; P62799 1-103).
T1 construct: It was pooled as the H3/H4 tetramer in 2 M NaCl and diluted to 150 mM NaCl before mixing; also called wild type H3/H4
The experiment in a line: cross-linking; DSS 1 mM, 30 min, 37 °C, in 25 mM HEPES pH 7.5, 150 mM NaCl, 5% glycerol, 1 mM DTT; sucrose gradient fraction of hexameric ATAD2; cross-links found by mass spectrometry (XL-MS). Particulars: both partners purified.

Data set [3] deals with Histone H3 (X. laevis, recombinant) (X. laevis, UniProt P84233 1-136). Described as above. To be noted: both partners purified.
Data set [4] concerns the target Histone H4 (X. laevis, recombinant) (X. laevis, UniProt P62799 1-103). The data set is described as above. Particulars: both partners purified.
Data set [5] deals with the molecule itself. Kind of data set: cryo-EM structure; ATAD2 Walker B mutant and refolded H3/H4 or H3/H4K5Q mixed 1:1.5 in 150 mM NaCl, cross-linked with 1 mM DSS, purified on a 10-30% sucrose gradient; vitrified at 1.2 mg/mL with 1 mM Mg-ATP; classes I-III at 3.8, 4.3, 4.3 Å.

B1: N-terminally truncated ATAD2 (aa 403-1390), wild type (domain or fragment, human, UniProt Q6PL18 403-1390, looked up)
chain: DRMKIGASLADVDPMQLDSSVRFDSVGGLSNHIAALKEMVVFPLLYPEVFEKFKIQPPRGCLFYGPPGTGKTLVARALANECSQGDKRVAFFMRKGADCLSKWVGESERQLRLLFDQAYQMRPSIIFFDEIDGLAPVRSSRQDQIHSSIVSTLLALMDGLDSRGEIVVIGATNRLDSIDPALRRPGRFDREFLFSLPDKEARKEILKIHTRDWNPKPLDTFLEELAENCVGYCGADIKSICAEAALCALRRRYPQIYTTSEKLQLDLSSINISAKDFEVAMQKMIPASQRAVTSPGQALSTVVKPLLQNTVDKILEALQRVFPHAEFRTNKTLDSDISCPLLESDLAYSDDDVPSVYENGLSQKSSHKAKDNFNFLHLNRNACYQPMSFRPRILIVGEPGFGQGSHLAPAVIHALEKFTVYTLDIPVLFGVSTTSPEETCAQVIREAKRTAPSIVYVPHIHVWWEIVGPTLKATFTTLLQNIPSFAPVLLLATSDKPHSALPEEVQELFIRDYGEIFNVQLPDKEERTKFFEDLILKQAAKPPISKKKAVLQALEVLPVAPPPEPRSLTAEEVKRLEEQEEDTFRELRIFLRNVTHRLAIDKRFRVFTKPVDPDEVPDYVTVIKQPMDLSSVISKIDLHKYLTVKDYLRDIDLICSNALEYNPDRDPGDRLIRHRACALRDTAYAIIKEELDEDFEQLCEEIQESRKKRGCSSSKYAPSYYHVMPKQNSTLVGDKRSDPEQNEKLKTPSTPVACSTPAQLKRKIRKKSNWYLGTIKKRRKISQAKDDSQNAIDHKIESDTEETQDTSVDHNETGNTGESSVEENEKQQNASESKLELRNNSNTCNIENELEDSRKTTACTELRDKIACNGDASSSQIIHISDENEGKEMCVLRMTRARRSQVEQQQLITVEKALAILSQPTPSLVVDHERLKNLLKTVVKKSQNYNIFQLENLYAVISQCIYRHRKDHDKTSLIQKMEQEVENFSCSR
notes: ATAD2 (ATPase family AAA domain-containing 2), human, aa 403-1390, from a codon-optimized synthetic full-length gene (Genscript); The vector has a Tev protease site after the 3xFlag tag; No cleavage step is described in the purification; also called wild type ATAD2
In the case of B1, the binding result in data set [1] is on record as “binds”.

B2: ATAD2 LD/Walker B triple mutant (D415A/E532Q/R540A), aa 403-1390 (domain or fragment, human, UniProt Q6PL18 403-1390, looked up)
chain: B1 chain with D13A, E130Q, R138A
notes: ATAD2, human, aa 403-1390, with D415A, E532Q and R540A; source: SF9 cells (baculovirus), purified
With B2, in data set [1], the binding result is given as “binds”.

B3: ATAD2 Walker B mutant (E532Q), aa 403-1390 (domain or fragment, human, UniProt Q6PL18 403-1390, looked up)
chain: B1 chain with E130Q
notes: ATAD2 (ATPase family AAA domain-containing 2), human, aa 403-1390, Walker B mutation E532Q; A Tev site follows the tag, and no cleavage step is described; also called ATAD2 (in the structure sections); not shown: 3xFlag, N-terminal, kept
For B3, the binding result in data set [2], in data set [3] and in data set [4] was “binds” in each case. The stoichiometry N – broadly, a count of units in the complex or per binding partner – in data set [5] amounted to 6.
